Laboratory results reported in the supplement of paper PMC9112550, “Optimization of the antimicrobial peptide Bac7 by deep mutational scanning” (BMC Biology, 2022).

test system: Escherichia coli TOP10; experiment: shrunken log2 fold change of peptide-encoding DNA abundance (4.5 h post-induction vs induction); higher = less antimicrobial activity (less host growth inhibition); settings: time post-induction: 4.5 h; library: site-saturation at positions 5, 18, 19, 20
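Further: peptides expressed intracellularly from a pBAD plasmid library in pooled LB shake-flask culture, induced with 0.3% L-arabinose, DNA abundance read by NGS, three biological replicates, DESeq2 with apeglm shrinkage.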

Row | Sequence | shrunken log2 fold change
1 | RRIRDRPPRLPRPRPRPRVFPRP | 0.485
2 | RRIRIRPPRLPRPRPRPGPWPRP | 0.0988
3 | RRIRMRPPRLPRPRPRPSIHPRP | -0.823
4 | RRIRIRPPRLPRPRPRPMCAPRP | -0.127
5 | RRIRNRPPRLPRPRPRPQFNPRP | -0.0424
6 | RRIRRRPPRLPRPRPRPNSIPRP | -0.236
7 | RRIRRRPPRLPRPRPRPQCPPRP | -0.178
8 | RRIRVRPPRLPRPRPRPQPYPRP | -0.486
9 | RRIRFRPPRLPRPRPRPYINPRP | -0.647
10 | RRIRNRPPRLPRPRPRPVAAPRP | 0.359
11 | RRIRLRPPRLPRPRPRPHWTPRP | -0.015
12 | RRIRYRPPRLPRPRPRPDHLPRP | -0.00968
13 | RRIRGRPPRLPRPRPRPHDDPRP | 0.0376
14 | RRIRLRPPRLPRPRPRPIYHPRP | -0.6
15 | RRIRRRPPRLPRPRPRPASPPRP | 0.314
16 | RRIRIRPPRLPRPRPRPMRSPRP | 0.000106
17 | RRIRPRPPRLPRPRPRPGFIPRP | -0.221
18 | RRIRRRPPRLPRPRPRPWICPRP | -0.0987
19 | RRIRWRPPRLPRPRPRPCEGPRP | 0.00476
20 | RRIRQRPPRLPRPRPRPAGYPRP | -0.101
21 | RRIRWRPPRLPRPRPRPKDFPRP | 0.0488
22 | RRIRDRPPRLPRPRPRPGLRPRP | 0.277
23 | RRIRGRPPRLPRPRPRPGYHPRP | 0.0713
24 | RRIRTRPPRLPRPRPRPKPFPRP | 0.122
25 | RRIRFRPPRLPRPRPRPAIAPRP | 0.0519

Row | Sequence | shrunken log2 fold change
26 | RRIRIRPPRLPRPRPRPKEYPRP | -0.728
27 | RRIRTRPPRLPRPRPRPNLCPRP | 0.108
28 | RRIRDRPPRLPRPRPRPYCNPRP | -0.137
29 | RRIRYRPPRLPRPRPRPRAYPRP | -0.0333
30 | RRIRIRPPRLPRPRPRPYKMPRP | -0.889
31 | RRIRIRPPRLPRPRPRPWDNPRP | -0.339
32 | RRIRARPPRLPRPRPRPHLTPRP | -0.145
33 | RRIRERPPRLPRPRPRPTPMPRP | 0.0913
34 | RRIRLRPPRLPRPRPRPYRYPRP | -0.254
35 | RRIRLRPPRLPRPRPRPNNVPRP | -0.395
36 | RRIRTRPPRLPRPRPRPINRPRP | 0.028
37 | RRIRERPPRLPRPRPRPGSEPRP | -0.0924
38 | RRIRHRPPRLPRPRPRPECKPRP | -0.0985
39 | RRIRDRPPRLPRPRPRPDAMPRP | -0.107
40 | RRIRMRPPRLPRPRPRPLNDPRP | 0.106
41 | RRIRWRPPRLPRPRPRPWSAPRP | 0.228
42 | RRIRLRPPRLPRPRPRPKLSPRP | 0.0605
43 | RRIRHRPPRLPRPRPRPPDAPRP | 0.348
44 | RRIRIRPPRLPRPRPRPKVNPRP | -0.647
45 | RRIRLRPPRLPRPRPRPNTEPRP | 0.019
46 | RRIRRRPPRLPRPRPRPDVYPRP | -0.0445
47 | RRIRLRPPRLPRPRPRPVGGPRP | 0.516
48 | RRIRGRPPRLPRPRPRPGVNPRP | 0.075
49 | RRIRMRPPRLPRPRPRPGTLPRP | -0.02
50 | RRIRERPPRLPRPRPRPHFRPRP | -0.624

Row | Sequence | shrunken log2 fold change
51 | RRIRLRPPRLPRPRPRPVQYPRP | -0.0382
52 | RRIRIRPPRLPRPRPRPEEYPRP | -0.0228
53 | RRIRVRPPRLPRPRPRPGHEPRP | -0.0501
54 | RRIRCRPPRLPRPRPRPTVSPRP | 0.0953
55 | RRIRQRPPRLPRPRPRPFNFPRP | -0.16
56 | RRIRPRPPRLPRPRPRPEKHPRP | 0.418
57 | RRIRWRPPRLPRPRPRPWRMPRP | -0.182
58 | RRIRPRPPRLPRPRPRPLHSPRP | -0.207
59 | RRIRTRPPRLPRPRPRPHKKPRP | 0.0809
60 | RRIRYRPPRLPRPRPRPVACPRP | -0.187
61 | RRIRPRPPRLPRPRPRPSQMPRP | 0.185
62 | RRIRFRPPRLPRPRPRPTEMPRP | -0.105
63 | RRIRVRPPRLPRPRPRPMRSPRP | 0.604
64 | RRIRRRPPRLPRPRPRPYVIPRP | 0.0475
65 | RRIRSRPPRLPRPRPRPEAHPRP | 0.16
66 | RRIRCRPPRLPRPRPRPLTTPRP | 0.729
67 | RRIRMRPPRLPRPRPRPIQCPRP | -0.239
68 | RRIRSRPPRLPRPRPRPKYRPRP | 0.127
69 | RRIRERPPRLPRPRPRPSTGPRP | -0.467
70 | RRIRGRPPRLPRPRPRPPSNPRP | 0.374
71 | RRIRNRPPRLPRPRPRPVQCPRP | -0.0226
72 | RRIRFRPPRLPRPRPRPMMMPRP | -0.101
73 | RRIRSRPPRLPRPRPRPMAHPRP | 0.218
74 | RRIRQRPPRLPRPRPRPCHVPRP | -0.167
75 | RRIRSRPPRLPRPRPRPSCSPRP | -0.231

Row | Sequence | shrunken log2 fold change
76 | RRIRKRPPRLPRPRPRPKNQPRP | 0.419
77 | RRIRQRPPRLPRPRPRPCSLPRP | -1.03
78 | RRIRNRPPRLPRPRPRPMPSPRP | 0.0832
79 | RRIRFRPPRLPRPRPRPYTGPRP | -0.0357
80 | RRIRIRPPRLPRPRPRPDSEPRP | 0.0636
81 | RRIRSRPPRLPRPRPRPLSQPRP | -0.00748
82 | RRIRYRPPRLPRPRPRPWRNPRP | -0.00674
83 | RRIRERPPRLPRPRPRPLIPPRP | -0.463
84 | RRIRCRPPRLPRPRPRPLDCPRP | 0.0147
85 | RRIRWRPPRLPRPRPRPAGIPRP | 0.186
86 | RRIRKRPPRLPRPRPRPVLEPRP | 0.475
87 | RRIRIRPPRLPRPRPRPSWYPRP | -0.604
88 | RRIRWRPPRLPRPRPRPFSNPRP | -0.258
89 | RRIRNRPPRLPRPRPRPLLLPRP | -0.25
90 | RRIRDRPPRLPRPRPRPWRDPRP | -0.0505
91 | RRIRHRPPRLPRPRPRPLMKPRP | -0.581
92 | RRIRGRPPRLPRPRPRPNQKPRP | 0.0822
93 | RRIRYRPPRLPRPRPRPWATPRP | -0.379
94 | RRIRNRPPRLPRPRPRPCALPRP | -0.135
95 | RRIRKRPPRLPRPRPRPSAEPRP | 0.787
96 | RRIRIRPPRLPRPRPRPNSTPRP | -0.722
97 | RRIRERPPRLPRPRPRPCMAPRP | -0.336
98 | RRIRARPPRLPRPRPRPKRGPRP | 0.565
99 | RRIRHRPPRLPRPRPRPGMDPRP | -0.0518
100 | RRIRHRPPRLPRPRPRPPAQPRP | 0.633

Row | Sequence | shrunken log2 fold change
101 | RRIRSRPPRLPRPRPRPLFAPRP | 0.0687
102 | RRIRCRPPRLPRPRPRPNDNPRP | -0.692
103 | RRIRCRPPRLPRPRPRPIYTPRP | -0.234
104 | RRIRSRPPRLPRPRPRPTLKPRP | -0.139
105 | RRIRRRPPRLPRPRPRPRRFPRP | 0.352
106 | RRIRTRPPRLPRPRPRPDTAPRP | 0.0677
107 | RRIRTRPPRLPRPRPRPLKAPRP | 0.0363
108 | RRIRFRPPRLPRPRPRPRFSPRP | 0.033
109 | RRIRNRPPRLPRPRPRPLFNPRP | -0.777
110 | RRIRIRPPRLPRPRPRPSPNPRP | -0.735
111 | RRIRKRPPRLPRPRPRPVHQPRP | 0.305
112 | RRIRIRPPRLPRPRPRPKNWPRP | -0.035
113 | RRIRYRPPRLPRPRPRPYPYPRP | -0.0257
114 | RRIRQRPPRLPRPRPRPDIAPRP | 0.111
115 | RRIRYRPPRLPRPRPRPFMEPRP | -0.0943
116 | RRIRIRPPRLPRPRPRPPVDPRP | -0.111
117 | RRIRVRPPRLPRPRPRPDMRPRP | -0.437
118 | RRIRKRPPRLPRPRPRPFVYPRP | -0.014
119 | RRIRRRPPRLPRPRPRPNCVPRP | 0.245
120 | RRIRARPPRLPRPRPRPWAGPRP | 0.233
121 | RRIRIRPPRLPRPRPRPATDPRP | -0.161
122 | RRIRLRPPRLPRPRPRPMGTPRP | -0.0465
123 | RRIRPRPPRLPRPRPRPCCDPRP | 0.249
124 | RRIRTRPPRLPRPRPRPPLTPRP | 0.13
125 | RRIRHRPPRLPRPRPRPQLLPRP | -0.197

Row | Sequence | shrunken log2 fold change
126 | RRIRDRPPRLPRPRPRPPHDPRP | 2.35
127 | RRIRKRPPRLPRPRPRPRNQPRP | 0.493
128 | RRIRPRPPRLPRPRPRPLETPRP | 0.151
129 | RRIRFRPPRLPRPRPRPPMIPRP | -0.224
130 | RRIRGRPPRLPRPRPRPSGKPRP | 0.367
131 | RRIRQRPPRLPRPRPRPNQHPRP | 0.0696
132 | RRIRGRPPRLPRPRPRPFCLPRP | 0.229
133 | RRIRWRPPRLPRPRPRPAASPRP | 0.404
134 | RRIRWRPPRLPRPRPRPKACPRP | 0.105
135 | RRIRWRPPRLPRPRPRPRCAPRP | 0.586
136 | RRIRNRPPRLPRPRPRPWFKPRP | -0.191
137 | RRIRERPPRLPRPRPRPCWIPRP | -0.594
138 | RRIRYRPPRLPRPRPRPMHWPRP | -0.597
139 | RRIRTRPPRLPRPRPRPAWSPRP | 0.358
140 | RRIRHRPPRLPRPRPRPGARPRP | 0.335
141 | RRIRYRPPRLPRPRPRPVWFPRP | -0.129
142 | RRIRDRPPRLPRPRPRPLHFPRP | -0.0881
143 | RRIRSRPPRLPRPRPRPTGTPRP | -0.0039
144 | RRIRQRPPRLPRPRPRPANWPRP | 0.431
145 | RRIRCRPPRLPRPRPRPHMSPRP | -0.193
146 | RRIRMRPPRLPRPRPRPCSHPRP | -0.167
147 | RRIRYRPPRLPRPRPRPRAGPRP | 0.461
148 | RRIRFRPPRLPRPRPRPMEPPRP | 0.039
149 | RRIRNRPPRLPRPRPRPYFVPRP | -0.312
150 | RRIRNRPPRLPRPRPRPKNWPRP | 0.168
